Measured values taken from paper PMC4642984.

Key:
[1] = target: ELucC-BMAL1 deletion mutant Bd4 (mouse) (UniProt Q9WTL8); test: split reporter (BiFC, NanoBiT); Split Luc complementation in living Cos7 cells transfected with ELucN-CK2β and ELucC-BMAL1 (WT or mutant) together with pcDNA, Myc-HA-CRY1, Myc-CRY2 or FLAG-CRY1 (WT or Cd1-4); real-time bioluminescence, averaged peak values
[2] = target: ELucC-BMAL1 deletion mutant Bd5 (mouse) (UniProt Q9WTL8); test: as above
Chain of ELucC-BMAL1 deletion mutant Bd5 (mouse) (Q9WTL8 other isoform, or with tags, fused parts or gaps, stated change not applied): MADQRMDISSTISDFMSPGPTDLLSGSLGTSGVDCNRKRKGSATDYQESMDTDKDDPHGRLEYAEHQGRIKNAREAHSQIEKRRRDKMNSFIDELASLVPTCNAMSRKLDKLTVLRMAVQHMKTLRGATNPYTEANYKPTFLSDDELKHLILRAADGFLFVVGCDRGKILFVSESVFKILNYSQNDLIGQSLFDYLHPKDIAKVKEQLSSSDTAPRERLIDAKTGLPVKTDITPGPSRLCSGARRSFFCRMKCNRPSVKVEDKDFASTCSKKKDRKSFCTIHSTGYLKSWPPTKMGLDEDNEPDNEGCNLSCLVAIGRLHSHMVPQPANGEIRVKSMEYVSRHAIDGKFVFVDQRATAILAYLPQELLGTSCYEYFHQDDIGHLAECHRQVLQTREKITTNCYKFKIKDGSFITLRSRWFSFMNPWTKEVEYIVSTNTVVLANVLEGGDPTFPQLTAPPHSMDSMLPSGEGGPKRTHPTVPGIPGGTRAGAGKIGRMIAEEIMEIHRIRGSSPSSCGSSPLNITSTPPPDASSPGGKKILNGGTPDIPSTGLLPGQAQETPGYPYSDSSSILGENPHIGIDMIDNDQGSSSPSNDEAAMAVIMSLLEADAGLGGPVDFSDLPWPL

Chain of ELucN-CK2β (P67870 whole entry): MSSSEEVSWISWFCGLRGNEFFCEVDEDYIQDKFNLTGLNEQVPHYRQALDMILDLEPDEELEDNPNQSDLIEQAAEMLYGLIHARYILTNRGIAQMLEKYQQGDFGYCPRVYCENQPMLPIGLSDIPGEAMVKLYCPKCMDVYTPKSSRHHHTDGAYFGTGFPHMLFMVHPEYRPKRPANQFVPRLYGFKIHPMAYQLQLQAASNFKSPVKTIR
Chain of ELucC-BMAL1 deletion mutant Bd4 (mouse) (Q9WTL8 other isoform, or with tags, fused parts or gaps, stated change not applied): as the sequence (Q9WTL8 other isoform, or with tags, fused parts or gaps, stated change not applied) above

Split Luc bioluminescence, fold of BMAL1-WT [1]: 2 fold
Split Luc bioluminescence, percent of BMAL1-WT [2]: 30%
Substance: ELucN-CK2β (from UniProt P67870 1-215) (natural protein)
